One molecule from patent US20150056210A1 (published 2015) can be followed below.

The term Kd denotes a measure of binding affinity in units of concentration. The low end stands for a tighter complex, the high end for a looser complex.

This assay addresses Spacer-GST. As to the kind of experiment: SPR (Biacore X-100).

B1: CRB0017_IgG4 (antibody, V domains shown)
VH: QVQLQQSGAELAKPGASVKMSCKASGYTFTSYWMHWVKQRPGQGLEWIGYINPSTGYTEYNQKFKDKATLTADKSSSTAYMQLGSLTSEDSAVYYCARGGYDDLGYWGQGTTLTVSS
VL: DIVITQDELSNPVTSGESVSISCRSSKSLLYKDGKTYLYWFLQRPGQSPQLPIYLMSTRASGVSDRFSGSGSGTDFTLEISRVKAEDVGVYYCQQLVEYPYTFGGGTKLEIK
As to B1, binding was put at a Kd of 2.15 nM.
